# According to patent US20180318419A1 (YALE UNIVERSITY, published 2018):
# T1: human myelin-associated glycoprotein (MAG) (human, UniProt P20916 20-626)
# T1 construct: Expressed on transfected HEK293T cells from the human membrane gene library; also called Siglec 4; human MAG
# T1 sequence: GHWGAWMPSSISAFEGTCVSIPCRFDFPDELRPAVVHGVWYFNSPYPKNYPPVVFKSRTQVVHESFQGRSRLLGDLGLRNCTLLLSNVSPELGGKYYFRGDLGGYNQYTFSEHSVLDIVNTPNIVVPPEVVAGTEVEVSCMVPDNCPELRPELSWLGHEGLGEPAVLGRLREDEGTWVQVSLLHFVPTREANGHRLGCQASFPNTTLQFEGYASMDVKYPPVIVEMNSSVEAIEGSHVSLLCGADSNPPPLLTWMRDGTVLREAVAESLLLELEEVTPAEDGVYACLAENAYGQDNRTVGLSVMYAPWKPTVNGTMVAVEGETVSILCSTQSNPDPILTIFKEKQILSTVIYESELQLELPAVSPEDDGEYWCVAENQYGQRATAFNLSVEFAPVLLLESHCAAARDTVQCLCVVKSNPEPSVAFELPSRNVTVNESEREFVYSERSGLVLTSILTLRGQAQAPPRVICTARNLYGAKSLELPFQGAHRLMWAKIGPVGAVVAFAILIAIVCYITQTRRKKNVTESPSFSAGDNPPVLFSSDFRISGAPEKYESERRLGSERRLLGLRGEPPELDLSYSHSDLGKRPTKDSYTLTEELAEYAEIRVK
# T2: human leucine rich repeat containing 4C (LRRC4C) (human, UniProt Q9HCJ2 45-640)
# T2 construct: also called human LRRC4; NGL1
# T2 sequence: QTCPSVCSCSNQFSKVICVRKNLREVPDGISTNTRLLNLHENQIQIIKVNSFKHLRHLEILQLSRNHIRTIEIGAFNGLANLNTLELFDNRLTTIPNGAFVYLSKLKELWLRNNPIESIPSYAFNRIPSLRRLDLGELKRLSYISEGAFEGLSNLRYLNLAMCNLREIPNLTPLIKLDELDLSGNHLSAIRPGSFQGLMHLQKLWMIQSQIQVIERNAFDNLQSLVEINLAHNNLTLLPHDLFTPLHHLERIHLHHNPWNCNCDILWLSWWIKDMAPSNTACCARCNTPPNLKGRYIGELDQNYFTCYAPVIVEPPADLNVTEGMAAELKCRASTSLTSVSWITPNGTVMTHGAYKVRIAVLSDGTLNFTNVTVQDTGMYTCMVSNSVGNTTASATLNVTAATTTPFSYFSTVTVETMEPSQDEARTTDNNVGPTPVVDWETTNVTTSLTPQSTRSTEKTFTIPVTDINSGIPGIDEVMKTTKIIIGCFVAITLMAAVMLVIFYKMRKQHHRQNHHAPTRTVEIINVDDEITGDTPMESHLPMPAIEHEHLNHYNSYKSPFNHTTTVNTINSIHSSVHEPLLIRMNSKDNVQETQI
# T3: MAG (species not stated) (Homo sapiens (Human), UniProt P20916 20-626, limits assumed)
# T3 construct: also called myelin-associated glycoprotein
# T3 sequence: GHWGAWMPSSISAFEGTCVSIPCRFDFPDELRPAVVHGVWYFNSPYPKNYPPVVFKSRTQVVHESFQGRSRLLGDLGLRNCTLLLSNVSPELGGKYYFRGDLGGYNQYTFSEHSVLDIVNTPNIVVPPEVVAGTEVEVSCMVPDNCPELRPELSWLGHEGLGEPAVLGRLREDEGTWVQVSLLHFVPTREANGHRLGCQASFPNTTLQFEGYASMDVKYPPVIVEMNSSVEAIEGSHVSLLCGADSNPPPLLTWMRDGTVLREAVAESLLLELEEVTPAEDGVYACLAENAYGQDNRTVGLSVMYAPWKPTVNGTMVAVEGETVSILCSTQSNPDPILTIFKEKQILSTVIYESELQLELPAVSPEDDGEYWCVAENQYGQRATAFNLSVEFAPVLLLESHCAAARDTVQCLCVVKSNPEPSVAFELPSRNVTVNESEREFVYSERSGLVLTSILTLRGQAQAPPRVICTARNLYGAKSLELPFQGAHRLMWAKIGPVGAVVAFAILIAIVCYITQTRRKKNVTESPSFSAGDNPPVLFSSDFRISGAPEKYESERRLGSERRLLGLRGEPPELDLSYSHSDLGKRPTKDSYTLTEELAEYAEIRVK
# T4: LRRC4C (species not stated) (Homo sapiens (Human), UniProt Q9HCJ2 45-640, limits assumed)
# T4 construct: also called leucine rich repeat containing 4C
# T4 sequence: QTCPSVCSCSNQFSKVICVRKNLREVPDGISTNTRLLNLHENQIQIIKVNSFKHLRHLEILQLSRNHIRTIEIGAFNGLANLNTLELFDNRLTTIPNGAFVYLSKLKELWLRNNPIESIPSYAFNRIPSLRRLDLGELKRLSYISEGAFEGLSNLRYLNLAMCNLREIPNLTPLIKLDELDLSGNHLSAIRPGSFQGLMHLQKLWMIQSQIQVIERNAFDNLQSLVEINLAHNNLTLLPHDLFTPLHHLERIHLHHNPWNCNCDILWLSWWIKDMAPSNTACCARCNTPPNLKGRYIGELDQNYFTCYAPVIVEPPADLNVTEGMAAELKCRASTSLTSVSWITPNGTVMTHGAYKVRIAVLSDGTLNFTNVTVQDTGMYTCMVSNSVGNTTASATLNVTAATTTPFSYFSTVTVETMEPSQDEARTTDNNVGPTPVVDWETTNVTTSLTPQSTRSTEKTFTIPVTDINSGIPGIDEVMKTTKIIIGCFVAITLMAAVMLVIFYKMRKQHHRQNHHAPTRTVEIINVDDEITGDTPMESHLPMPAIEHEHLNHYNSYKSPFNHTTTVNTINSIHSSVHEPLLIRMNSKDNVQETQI
# Legend:
# [1] = molecular target: T1, human myelin-associated glycoprotein …; experiment: genome-scale human receptor array; transfected HEK293T cells, anti-Fc FMAT blue secondary antibody
# Excerpt: (§1) To identify the ligand for Siglec 15, a Siglec 15-Fc fusion protein was generated by fusing the extracellular domain of each molecule with a mouse or human Fc tag (Dong H, et al., Nat Med. 1999; 5(12): 1365-9) and screened in the newly established genome scale human receptor array (Yao, S et al., Immunity 2011, 34(5):729-40). Briefly, the complete human membrane gene library containing over 6,200 genes was collected, maintained, and diluted by OPTI-MEM media and placed individually into four 1,536-well plates at 40 ng/well, through a robotic system. Lipofectamine 2000 was added to each well and mixed with plasmids for 30 minutes. Two thousand HEK293T cells were added subsequently to each well to perform transient transfection. Eight hours after transfection, 10 ng of human Siglec 15-Fc and anti-Fc FMAT blue secondary antibody were added to each well. The plates were read 24 hours after transfection using the Applied Biosystems 8200 cellular detection system and analyzed using the CDS 8200 software. Human Fc Receptor genes served as internal positive controls for the assay.
# [2] = molecular target: T2, human leucine rich repeat containing 4C …; experiment: as above
# Excerpt: as §1
# MAG (species not stated) = molecular target: T3, MAG (species not stated); experiment: binding of Siglec 15 point mutant, FIG. 7
# [3] = molecular target: T4, LRRC4C (species not stated); experiment: binding of Siglec 15 point mutant, FIG. 7
binding result [1],binding result [2],binding result (MAG (species not stated)),binding result [3],Binder
binds,binds,,,"human Siglec 15-Fc fusion protein (Fc fusion, not shown: mouse or human Fc tag) FVRTKIDTTENLLNTEVHSSPAQRWSMQVPPEVSAEAGDAAVLPCTFTHPHRHYDGPLTAIWRAGEPYAGPQVFRCAAARGSELCQTALSLHGRFRLLGNPRRNDLSLRVERLALADDRRYFCRVEFAGDVHDRYESRHGVRLHVTAAPRIVNISVLPSPAHAFRALCTAEGEPPPALAWSGPALGNSLAAVRSPREGHGHLVTAELPALTHDGRYTCTAANSLGRSEASVYLFRFHGASGAST"
,,no binding,no binding,"Siglec 15 R143A mutant (other, also called R143A mutation) FVRTKIDTTENLLNTEVHSSPAQRWSMQVPPEVSAEAGDAAVLPCTFTHPHRHYDGPLTAIWRAGEPYAGPQVFRCAAARGSELCQTALSLHGRFRLLGNPRRNDLSLRVERLALADDRRYFCAVEFAGDVHDRYESRHGVRLHVTAAPRIVNISVLPSPAHAFRALCTAEGEPPPALAWSGPALGNSLAAVRSPREGHGHLVTAELPALTHDGRYTCTAANSLGRSEASVYLFRFHGASGAST"
